Data reported in patent US20240240189A1, “CANCER TREATMENT BY TARGETING PROTEINS OR INTERACTIONS OF EPHRINB-RGS3-KIF20A-SEPT7 AXIS” (CITY OF HOPE, priority 2021, published 2024).
Entries after “also recorded” stand apart in the source; their conditions may differ.

What was measured:
human KIF20A transcript = test: shRNA screening by dual luciferase reporter assay; type: cell-based; conditions: transfected HEK293 cells, shRNA in pNUT vector, cDNA target in psi-CHECK, 48 hours
Experimental: FIGS. 10a-10c show generation of human KIF20A shRNAs and stable Daoy cell lines. […] Candidate shRNAs in pNUT vector were first screened with a cDNA target cloned in psi-CHECK vector in transfected HEK293 cells, using a dual luciferase reporter assay and their cDNA target in psi-CHECK Vector (Promega). Six candidate shKIF20As were tested with this assay. […] Data are mean±S.D. **P<0.01, ***P<0.001 (two-way ANOVA).
DNA Constructs, Lentivirus Production: Lentiviral transfer plasmids used in this study include: Hiv7CMV-Cre-myc-2A-GFP (Addgene #117148), Hiv7CMV-GFP, Hiv7CMV-GFP-IRES-Luciferase, as well as Tet-on inducible shRNA plasmids Tet-pLKO-hushKIF20A726 or Tet-pLKO-hushKIF20A181-Puro (shRNA sequences were cloned into pLKO-Tet-On plasmid, Addgene #21915 at Agel/EcoRI sites). […]
shRNA design and screening: Potential shRNA sequences were selected using web-based design tool (rnaidesigner.thermofisher.com/rnaiexpress/design.do). shRNAs were expressed under the control of a mouse U6 promoter in pNUTs vector which additionally contains a ubiquitin promoter-EGFP expression cassette. Candidate shRNAs in pNUTs and cDNA target in psi-CHECK were co-transfected into HEK293 cells in triplicates; 48 hours later, the firefly and Renilla Luciferase values were determined with Promega's Dual-Luciferase® Reporter Assay System (Promega, E1910). […]

Daoy human MB cells = test: Growth assay of Daoy cells; type: cell-based; conditions: parental Daoy cells with or without doxycycline
Experimental: Generation of Daoy cell lines with stably integrated Tet-on inducible shRNA expression system: Daoy cells were infected with lentivirus of Tet-on inducible human KIF20A shRNA-726 and GFP-Luciferase prepared from Tet-pLKO-hushKIF20A726 plasmid and Hiv7CMVGFP-IRES-Luciferase plasmid, respectively. The transduced Daoy cells were selected for stable single clones with Puromycin (1 μg/ml, Sigma-Aldrich) and GFP fluorescence signal in DMEM (Invitrogen) with 10% fetal bovine serum. Single clones were picked up by glass cloning cylinders (Sigma-Aldrich) in 10 cm plate.
Growth Assay of tumor cells: Mouse MB cell lines, or Daoy clones stably integrated with Tet-on inducible human KIF20A shRNA-726, or Wild Type Daoy cells, were seeded into multiple wells of 24 well plates (2×10^4 or 1×10^4 cells per well). Cells in quadruplicate were then dissociated and counted using a hemocytometer at consecutive days after initial plating.

SEPT7 = biological target: T1, SEPT7 (Mus musculus, UniProt O55131); conditions: cited from earlier work
T1 sequence (O55131 1-436): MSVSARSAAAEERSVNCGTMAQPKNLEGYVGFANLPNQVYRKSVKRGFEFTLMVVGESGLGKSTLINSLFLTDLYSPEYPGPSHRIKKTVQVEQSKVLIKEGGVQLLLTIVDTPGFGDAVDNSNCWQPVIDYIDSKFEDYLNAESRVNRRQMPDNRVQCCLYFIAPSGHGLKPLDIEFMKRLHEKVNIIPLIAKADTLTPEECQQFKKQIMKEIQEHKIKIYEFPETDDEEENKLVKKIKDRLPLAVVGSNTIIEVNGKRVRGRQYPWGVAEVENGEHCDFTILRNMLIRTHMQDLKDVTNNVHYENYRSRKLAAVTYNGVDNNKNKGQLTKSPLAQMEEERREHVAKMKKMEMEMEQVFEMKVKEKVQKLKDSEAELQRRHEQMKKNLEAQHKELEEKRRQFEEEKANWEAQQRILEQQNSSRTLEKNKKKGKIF

RGS3-KIF20A interaction = biological target: T2, RGS3-KIF20A interaction (Mus musculus, UniProt Q9DC04); test: GST-RGS pulldown experiment; type: binding; conditions: expression of RBD, GST-RGS pull down
T2 construct: mediated by the RGS domain of RGS3
T2 sequence (Q9DC04 841-966 limits assumed): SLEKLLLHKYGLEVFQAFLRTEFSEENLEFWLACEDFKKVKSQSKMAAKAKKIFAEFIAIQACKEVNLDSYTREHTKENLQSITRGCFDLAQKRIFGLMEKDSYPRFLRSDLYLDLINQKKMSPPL

[1] = system: neural progenitor cells (NPCs); test: In utero electroporation over-expression in the mouse cortex; type: in vivo; conditions: expression plasmid delivered at E13.5 via IUE, brains collected at E15.5
Description: Expression plasmid of GFP, RBD (RGS-binding domain of mouse KIF20A), or RGS was delivered into the cortices at E13.5 via in utero electroporation (IUE). Brains were collected at E15.5 for analyses. Distribution of transfected cells (GFP+) across the radial domains were scored. […] VZ, ventricular zone; IZ, intermediate zone; CP, cortical plate. Green and blue asterisks indicate P<0.01 (Student's t-test) for CP and SVZ/VZ distributions, respectively.
RGS3-KIF20A interaction is mediated by the RGS domain of RGS3 and the RGS-binding domain (RBD) of KIF20A which is located to amino acids 625-818 of mouse KIF20A sequence (FIG. 13a)^9. […] In this experiment, expression plasmid of GFP, RBD (RGS-binding domain of KIF20A), or RGS was delivered into the cortices at E13.5 via IUE. Brains were collected at E15.5 for analyses. Distribution of transfected cells (GFP+) across the radial domains were scored.

GISC017 cells = test: Cell cycle exit analysis (EdU/Ki67) in GISC017 cells; type: cell-based, human; conditions: lentiviral expression of RBD
Description: To further investigate the relevance of KIF20A in human brain tumors, inhibition of KIF20A in patient-derived GBM-initiating/stem cells (GISCs) was examined. As the ERKS axis functions in different types of brain tumor-initiating/stem cells, data obtained from study of GISCs would be applicable to other brain tumor cell types. Multiple lines of patient-derived GISCs were obtained from Dr. Christine Brown. These low passaged GISCs could be expanded in cultures and could engraft in NSG mice^43, 44. FIG. 11 summarizes the results of testing KIF20A in one GISC line (GISC017) by constitutive expression of a control scrambled shRNA or shKIF20A726 (shRNA targeting hKIF20A) in pNUT vector-based lentiviral expression system. […] In the above cell cycle exit analysis, co-staining of differentiation markers (e.g. βlll-tubulin, DCX, or NeuN) was performed, however, these markers were detected in EdU^+Ki67^− (cells having left the cell cycle) but also in some EdU^+Ki67^+ (cells staying in the cell cycle) cells, which might reflect a technical artefact observed with progenitor/stem cells in culture. […]

Molecule: 5′-AGTATGGAGAAGGTGAAAG-TTCAAGAGA-CTTTCACCTTCTCCATACT-3′ (AGTATGGAGAAGGTGAAAGTTCAAGAGACTTTCACCTTCTCCATACT; expressed or natural sequence) [shKIF20A181, shRNA targeting human KIF20A transcript]
- inhibition of expression of the human KIF20A transcript (luciferase assay) (human KIF20A transcript): significantly inhibit expression of the human KIF20A transcript

Molecule: C[C@H]1c2cccc(O)c2C(=O)C2=C(O)[C@]3(O)C(=O)C(C(N)=O)=C(O)[C@@H](N(C)C)[C@@H]3[C@@H](O)[C@@H]21 [doxycycline, reference compound]
- growth of parental Daoy cells (cytotoxicity of doxycycline) (Daoy human MB cells): not affected

B1: RBD: RGS-binding domain of KIF20A, amino acids 625-818 of mouse KIF20A sequence; competitive inhibitor for RGS3-KIF20A interaction (protein)
chain: LKILKESLTTFYQEQIQERDEKIEELETLLQEAKQQPAAQQSGGLSLLRRSQRLAASASTQQFQEVKAELEQCKTELSSTTAELHKYQQVLKPPPPAKPFTIDVDKKLEEGQKNIRLLRTELQKLGQSLQSAERACCHSTGAGKLRQALTNCDDILIKQNQTLAELQNNMVLVKLDLQKKAACIAEQYHTVLKL
modifications: left off: small tags and cut ends
- interaction with SEPT7 (SEPT7): interacts with SEPT7
- inhibition of binding of GST-RGS and KIF20A (RGS3-KIF20A interaction): inhibited binding between RGS3 and mouse KIF20A
- inhibition of binding of GST-RGS and KIF20A (RGS3-KIF20A interaction; listed as Flag-RBD): inhibited binding of GST-RGS and KIF20A in a dose dependent manner
- inhibition of binding of GST-RGS and KIF20A (RGS3-KIF20A interaction; listed as KIF20A625-818): block interaction between KIF20A and RGS3
- neuronal differentiation of neural progenitor cells [1]: caused precocious neuronal differentiation of the affected NPCs; also recorded: caused neural progenitor cell differentiation and subsequent outward migration of newly born neurons into the IZ and CP regions
- neuronal differentiation of neural progenitor cells ([1]; listed as KIF20A625-818): cause neuronal differentiation
- cell cycle exit (GISC017 cells): induce cell cycle exit; also recorded: caused cell cycle exit
